Test results from US20220220218A1 (JIANGSU HENGRUI MEDICINE, published 2022).
Residue numbers refer to the chain shown, from its start.

B1: Hab110.21 (antibody, human IgG1, kappa, V domains shown)
VH: EVQLVQSGAEVKKPGASVKVSCKASGYTFTSYTMHWVRQAPGQRLEWMGYINPNSFYIEYNQKFKDRVTITRDTSASTAYMELSSLRSEDTAVYYCARGDYDLFYDMDNWGQGTTVTVSS
VL: DIQMTQSPSSLSASVGDRVTITCRASQDIGNSLNWLQQKPGKAIKRLIYATFRLDSGVPSRFSGSRSGTEYTLTISSLQPEDFATYYCQQYASFPWTFGGGTKVEIKR
notes: also called humanized antibody of mab110
B2: Hab127.31d (antibody, human IgG1, kappa, V domains shown)
VH: EVQLVQSGAEVKKPGASVKVSCKASGYTFTAYFMNWVRQAPGQGLEWMGRIYHNKGDTFYSQKFKGRVTMTVDKSTSTVYMELSSLRSEDTAVYYCATSYVGDWGQGTTVTVSS
VL: B1 VL with N31D, K42G, I44L, F52S, R53S, R66G, Q89L
notes: also called humanized antibody of mab127
B3: Hab108.64 (antibody, human IgG1, kappa, V domains shown)
VH: EVTLKQSGPGLVKPTETLTLTCTVSGFSLSSYGIQWVRQPPGKGLEWLGVIWSGGSADYNAAFISRLTISKDTSKSQVVLTMTNMDPVDTATYYCAGQYGSVWGQGTLVTVSS
VL: DIQMTQSPSSLSASVGDRVTITCRASQDIGDRLNWLQQKPGGAIKRLIYATSSLDSGVPKRFSGSGSGTEYTLTISSLQPEDFATYYCLQYAGSWTFGGGTKVEIKR
notes: also called humanized antibody of mab108
B4: CPX006 (antibody CPX-006 disclosed in patent application WO2018013611) (antibody, V domains shown)
VH: QVQLVQSGAEVEKPGASVKVSCKASGYTFTSYWITWVRQAPGQGLEWMGDIYPGSGNTNYNEKFKTRVTITADKSTSTAYMELSSLRSEDTAVYYCAKEGGLTTEDYALDYWGQGTLVTVSS
VL: EIVLTQSPATLSLSPGERATLSCRASKNVSTSGYSYMHWYQQKPGQAPRLLIYLASNLESGIPPRFSGSGYGTDFTLTINNIESEDAAYYFCQHSRELPFTFGQGTKVEIKR

Assays:
[1] = molecular target: T1, cynomolgus monkey CD73/NT5E protein (His tag), Sino Biological Cat. No. 90192-C08H (cynomolgus monkey, UniProt A0A2K5V5U7 27-547); assay: SPR Biacore T200; antibody captured on Protein A chip, cynoCD73 in flow; 1:1 Langmuir
T1 construct: also called cynomolgus monkey CD73 protein; cynoCD73; not shown: His tag
T1 sequence: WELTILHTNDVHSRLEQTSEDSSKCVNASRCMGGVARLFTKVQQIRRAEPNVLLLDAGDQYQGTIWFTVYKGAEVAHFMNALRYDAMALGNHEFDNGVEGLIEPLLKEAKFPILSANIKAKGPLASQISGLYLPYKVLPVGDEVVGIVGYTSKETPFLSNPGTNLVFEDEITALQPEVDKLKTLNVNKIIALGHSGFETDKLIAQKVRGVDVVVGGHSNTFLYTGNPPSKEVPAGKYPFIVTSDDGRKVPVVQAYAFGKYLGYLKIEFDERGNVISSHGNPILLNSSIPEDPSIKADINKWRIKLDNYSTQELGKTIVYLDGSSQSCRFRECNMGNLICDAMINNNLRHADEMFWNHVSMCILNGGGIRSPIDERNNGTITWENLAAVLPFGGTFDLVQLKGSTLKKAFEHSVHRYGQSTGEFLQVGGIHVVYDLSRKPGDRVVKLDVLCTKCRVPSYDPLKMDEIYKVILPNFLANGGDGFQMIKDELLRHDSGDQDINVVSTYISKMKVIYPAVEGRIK
Excerpt: In this experiment, Biacore instrument was used to determine the affinity of the humanized anti-CD73 antibodies to be tested with human CD73 (huCD73) and monkey CD73 (cynoCD73).
A certain amount of test antibody was affinity-captured with Protein A biosensing chip (Cat. #29127556, GE), and then a certain concentration of human or monkey CD73 antigen was allowed to flow through the surface of the chip. The reaction signals were detected in real time with Biacore instrument (Biacore T200, GE) to generate a binding and dissociation curve. At the end of each cycle, after the dissociation was completed, the biosensor chip was washed and regenerated with Glycine-HCl, pH1.5 (Cat. #BR-1003-54, GE). The running buffer for the assay was 1×HBS-EP buffer solution (Cat. #BR-1001-88, GE).
The data obtained from the experiment was fitted against (1:1) Langmuir model using GE Biacore T200 Evaluation version 3.0 software, and the affinity values were obtained, as shown in Table 12 and Table 13 for details.

[2] = molecular target: T2, human CD73 on tumor cell line MDA-MB-231 that highly expresses human CD73 (human, UniProt P21589 27-549); assay: cell ELISA on fixed MDA-MB-231 cells
T2 construct: whole, on cells; Cells were fixed on the plate for the cell ELISA and live for the enzyme assay; also called MDA-MB-231 cells
T2 sequence (looked up): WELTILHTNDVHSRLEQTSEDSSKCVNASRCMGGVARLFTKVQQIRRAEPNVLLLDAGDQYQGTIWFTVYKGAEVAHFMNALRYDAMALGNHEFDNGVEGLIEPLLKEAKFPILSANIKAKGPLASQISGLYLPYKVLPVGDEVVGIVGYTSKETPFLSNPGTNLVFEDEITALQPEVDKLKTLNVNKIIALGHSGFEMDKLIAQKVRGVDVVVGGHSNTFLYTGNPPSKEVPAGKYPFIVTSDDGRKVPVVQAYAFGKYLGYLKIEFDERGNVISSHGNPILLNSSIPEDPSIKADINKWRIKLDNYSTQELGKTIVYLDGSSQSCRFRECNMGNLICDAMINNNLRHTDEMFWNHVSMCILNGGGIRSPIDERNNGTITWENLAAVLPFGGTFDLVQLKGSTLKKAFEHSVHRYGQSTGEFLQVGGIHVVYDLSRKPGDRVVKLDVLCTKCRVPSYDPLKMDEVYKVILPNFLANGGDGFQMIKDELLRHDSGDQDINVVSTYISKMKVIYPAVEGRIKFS
Description: The MDA-MB-231 cells were directly coated onto a 96-well microtiter plate. The signal strength after the addition of the antibody was used to determine the binding activity of the antibody to MDA-MB-231 cells. The specific experimental procedures were as follows:
MDA-MB-231 cells (ATCC, Cat No HTB-26) were seeded in the 96-well plate (Corning, Cat No. CLS3599-100EA) at a density of 6×10⁵/ml, 100 μl/well, and cultured overnight. The supernatant was discarded, the plate was washed with PBS for three times, 100 μl/well of cell immune fixed solution (Beyotime, Cat No. P0098) was added and fixed for half an hour at room temperature, and the plate washed with PBS for four times. The liquid was discarded, 250 μl/well blocking solution (5% skim milk diluted in PBS) was added, and incubated in an incubator at 37° C. for 3 hours. After the blocking was finished, the blocking solution was discarded, the plate was washed for 5 times with PBST buffer, 50 μl/well of various concentrations of each of the test antibodies were added, and incubated in an incubator at 37° C. for 1 hour. After the incubation was finished, the plate was washed for 5 times with PBST, 50 μl/well of HRP-labeled goat anti-mouse secondary antibody (Jackson Immuno Research, Cat No. 115-035-003) or goat anti-human secondary antibody (Jackson Immuno Research, Cat No. 109-035-003) diluted with sample diluent was added, and incubated at 37° C. for 1 hour. The plate was washed for 5 times with PBST, 50 μl/well of TMB chromogenic substrate (KPL, Cat No. 52-00-03) was added, incubated at room temperature for 5-15 min, and 50 μl/well of 1M H₂SO₄ was added to stop the reaction. The absorbance value was read by a microplate reader (Molecular Devices, VERSA max) at a wavelength of 450 nm, and the data was analyzed with GraphPad Prism 5. The binding of anti-CD73 antibody to MDA-MB-231 cells over-expressing CD73 was calculated as EC50 value.

[3] = molecular target: T2, human CD73 on tumor cell line …; assay: cell-based or functional assay

Binder | Kd [1] | koff [1] | kon [1] | EC50 [2] | IC50 (nM) in the assay showing the inhibition of enzyme activity in MDA-MB-231 cell [3]
B1 | 0.0489 nM | 3.45e-05 s⁻¹ | 704000 M⁻¹ s⁻¹ | 0.056 nM | 0.329 nM
B2 | 0.0699 nM | 1.86e-05 s⁻¹ | 266000 M⁻¹ s⁻¹ | 0.072 nM | 0.505 nM
B3 | 0.166 nM | 4.24e-05 s⁻¹ | 256000 M⁻¹ s⁻¹ | 0.062 nM | 0.53 nM
B4 |  |  |  | 0.433 nM | 10.2 nM
